Source: paper doi:10.1101/2025.02.17.638454, “Synergistic RAS-MAPK and AKT Activation in MYC-Driven Tumors via Adjacent PVT1 Rearrangements” (bioRxiv, 2025)

Target: T1, Recombinant KRAS protein (#ab156968, Abcam) (UniProt P01116 1-189)
T1 construct: KRAS, recombinant protein bought from Abcam; source: bought: Abcam (#ab156968), dialyzed into ITC buffer
Test: ITC; twenty 6 ul injections (150 s intervals) of 500 uM HNB into the cell with 93 uM KRAS; 20 mM Tris pH 8.0, 100 mM NaCl, 5 mM beta-mercaptoethanol; 25 C; Affinity ITC (TA Instruments)
Conditions: both partners purified

T1 sequence (P01116 whole entry): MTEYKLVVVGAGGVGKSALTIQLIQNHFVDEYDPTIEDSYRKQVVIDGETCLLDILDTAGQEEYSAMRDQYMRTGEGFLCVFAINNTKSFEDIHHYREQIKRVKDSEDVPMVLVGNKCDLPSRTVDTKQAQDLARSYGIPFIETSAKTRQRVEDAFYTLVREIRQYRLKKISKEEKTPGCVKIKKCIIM

## MKTQLGAVKGFLHV [Honeybadger (HNB) peptide used for ITC]
  Kd: 364 ± 2 µM
